Measurements as given in the Immune Epitope Database (IEDB).
pKd: −log10 of the molar value.

Columns and labels:
[1] = molecular target: HLA-B*27:05; test: IEDB peptide-MHC binding, purified MHC/competitive/fluorescence; filed as Kd, often an IC50 or EC50 that approximates it; ≥ and ≤ were set here for values at or beyond the usual limits of such assays
[2] = molecular target: HLA-A*01:01; test: IEDB peptide-MHC binding, purified MHC/direct/fluorescence; filed as Kd, often an IC50 or EC50 that approximates it; ≥ and ≤ were set here for values at or beyond the usual limits of such assays
[3] = molecular target: HLA-A*02:01; test: as above
[4] = molecular target: HLA-A*02:03; test: as above
[5] = molecular target: HLA-A*02:06; test: as above
[6] = molecular target: HLA-A*02:12; test: as above
[7] = molecular target: HLA-A*02:19; test: as above
[8] = molecular target: HLA-A*03:01; test: as above
[9] = molecular target: HLA-A*11:01; test: as above
[10] = molecular target: HLA-A*24:02; test: as above
[11] = molecular target: HLA-A*31:01; test: as above
[12] = molecular target: HLA-B*07:02; test: as above
[13] = molecular target: HLA-B*15:01; test: as above
[14] = molecular target: HLA-B*27:05; test: as above
[15] = molecular target: HLA-B*40:01; test: as above
[16] = molecular target: HLA-B*44:02; test: as above
[17] = molecular target: HLA-B*46:01; test: as above
[18] = molecular target: HLA-B*58:01; test: as above
[19] = molecular target: HLA-A*26:01; test: as above
[20] = molecular target: HLA-A*26:02; test: as above
[21] = molecular target: HLA-B*40:01; test: IEDB peptide-MHC binding, purified MHC/competitive/fluorescence; filed as Kd, often an IC50 or EC50 that approximates it; ≥ and ≤ were set here for values at or beyond the usual limits of such assays
[22] = molecular target: HLA-C*07:02; test: IEDB peptide-MHC binding, purified MHC/direct/fluorescence; filed as Kd, often an IC50 or EC50 that approximates it; ≥ and ≤ were set here for values at or beyond the usual limits of such assays
[23] = molecular target: HLA-A*69:01; test: as above
[24] = molecular target: HLA-B*15:09; test: as above
[25] = molecular target: HLA-B*39:01; test: as above
[26] = molecular target: HLA-B*48:01; test: as above; details: source organism: Lassa virus Josiah
[27] = molecular target: HLA-B*57:01; test: as above; details: source organism: Lassa virus Josiah
[28] = molecular target: HLA-A*02:11; test: as above; details: source organism: Salmonella enterica subsp. arizonae serovar 62:z4,z23:-
[29] = molecular target: HLA-B*08:01; test: as above
[30] = molecular target: HLA-C*06:02; test: as above
[31] = molecular target: HLA-A*24:02; test: IEDB peptide-MHC binding, purified MHC/competitive/fluorescence; filed as Kd, often an IC50 or EC50 that approximates it; ≥ and ≤ were set here for values at or beyond the usual limits of such assays
[32] = molecular target: HLA-C*14:02; test: IEDB peptide-MHC binding, purified MHC/direct/fluorescence; filed as Kd, often an IC50 or EC50 that approximates it; ≥ and ≤ were set here for values at or beyond the usual limits of such assays
[33] = molecular target: HLA-C*15:02; test: as above
[34] = molecular target: HLA-A*02:12; test: IEDB peptide-MHC binding, purified MHC/competitive/fluorescence; filed as Kd, often an IC50 or EC50 that approximates it; ≥ and ≤ were set here for values at or beyond the usual limits of such assays; details: source organism: Toxoplasma gondii
[35] = molecular target: HLA-A*02:19; test: as above; details: source organism: Toxoplasma gondii
[36] = molecular target: HLA-A*03:01; test: as above; details: source organism: Toxoplasma gondii
[37] = molecular target: HLA-A*26:01; test: as above; details: source organism: Toxoplasma gondii
[38] = molecular target: HLA-A*31:01; test: as above; details: source organism: Toxoplasma gondii
[39] = molecular target: HLA-B*18:01; test: as above; details: source organism: Toxoplasma gondii
[40] = molecular target: HLA-B*27:03; test: as above; details: source organism: Toxoplasma gondii
[41] = molecular target: HLA-B*39:01; test: as above; details: source organism: Toxoplasma gondii
[42] = molecular target: HLA-B*08:02; test: IEDB peptide-MHC binding, purified MHC/direct/fluorescence; filed as Kd, often an IC50 or EC50 that approximates it; ≥ and ≤ were set here for values at or beyond the usual limits of such assays; details: source organism: Rickettsia sibirica 246
[43] = source organism: Brucella melitensis
[44] = source organism: Brucella ovis ATCC 25840
[45] = source organism: Vibrio cholerae V52
[46] = source organism: Influenza A virus (A/Harbin/1/1988(H1N2))
[47] = source organism: Lassa virus Josiah
[48] = source organism: Yersinia enterocolitica
[49] = source organism: Salmonella enterica subsp. arizonae serovar 62:z4,z23:-
[50] = source organism: Toxoplasma gondii
[51] = source organism: Rickettsia conorii
[52] = source organism: Rickettsia sibirica 246
[53] = source organism: Vibrio vulnificus YJ016

## AREIRDQGY
[1]; source organism: Escherichia coli 536
  pKd: ≤ 4.70

## CTDPPLLSV
[2]; [43]
  pKd: 5.16
[3]; [43]
  pKd: 6.28
[4]; [44]
  pKd: 5.98
[5]; [44]
  pKd: 7.64
[6]; [44]
  pKd: 6.28
[7]; [44]
  pKd: ≤ 4.70
[8]; [43]
  pKd: ≤ 4.70
[9]; [43]
  pKd: ≤ 4.70
[10]; [43]
  pKd: ≤ 4.70
[11]; [43]
  pKd: ≤ 4.70
[12]; [43]
  pKd: ≤ 4.70
[13]; [43]
  pKd: ≤ 4.70
[14]; [43]
  pKd: ≤ 4.70
[15]; [43]
  pKd: ≤ 4.70
[16]; [43]
  pKd: ≤ 4.70
[17]; [43]
  pKd: ≤ 4.70
[18]; [43]
  pKd: ≤ 4.70

## DIIWHLNDL
[19]; [45]
  pKd: 6.32
[20]; [45]
  pKd: 8.52

## EVHTWTEQY
[20]; source organism: dengue virus type 3
  pKd: ≥ 9.00

## GEINGEHVP
[21]; source organism: Escherichia coli B7A
  pKd: 7.06

## GRINYYWTL
[22]; [46]
  pKd: 7.60
[1]; [46]
  pKd: 7.31

## LEALSPPLL
[21]; source organism: Escherichia coli E22
  pKd: 8.26

## LEVSFGSVI
[21]; source organism: Salmonella enterica subsp. enterica serovar Typhi
  pKd: 8.46

## NHYLCLNCL
[2]; [47]
  pKd: ≤ 4.70
[3]; [47]
  pKd: ≤ 4.70
[8]; [47]
  pKd: ≤ 4.70
[11]; [47]
  pKd: ≤ 4.70
[23]; [47]
  pKd: ≤ 4.70
[12]; [47]
  pKd: ≤ 4.70
[13]; [47]
  pKd: ≤ 4.70
[24]; source organism: Mammarenavirus lassaense
  pKd: 6.37
[14]; [47]
  pKd: ≤ 4.70
[25]; [47]
  pKd: 7.59
[15]; [47]
  pKd: ≤ 4.70
[16]; [47]
  pKd: ≤ 4.70
[17]; [47]
  pKd: ≤ 4.70
[26]
  pKd: ≤ 4.70
[27]
  pKd: ≤ 4.70
[18]; [47]
  pKd: ≤ 4.70

## RIYSHIAPY
[2]; [48]
  pKd: ≤ 4.70
[3]; [48]
  pKd: 5.70
[4]; [49]
  pKd: 6.25
[5]; [49]
  pKd: 6.66
[28]
  pKd: 6.90
[6]; [49]
  pKd: 6.32
[7]; [49]
  pKd: ≤ 4.70
[8]; [48]
  pKd: 7.51
[9]; [48]
  pKd: 7.43
[11]; [48]
  pKd: 7.33
[23]; [48]
  pKd: ≤ 4.70
[12]; [48]
  pKd: ≤ 4.70
[29]; [49]
  pKd: ≤ 4.70
[13]; [48]
  pKd: 6.96
[14]; [48]
  pKd: 6.14
[15]; [48]
  pKd: ≤ 4.70
[16]; [48]
  pKd: ≤ 4.70
[18]; [48]
  pKd: 7.24
[30]; source organism: Yersinia pestis Nepal516
  pKd: ≤ 4.70

## RLGKGYMF
[31]; source organism: Influenza A virus (A/Fort Monmouth/1/1947-mouse adapted(H1N1))
  pKd: 7.49

## RTWFYRTEF
[30]; [50]
  pKd: ≤ 4.70
[32]; [50]
  pKd: 6.82
[33]; [50]
  pKd: 6.90
[34]
  pKd: ≤ 4.70
[35]
  pKd: ≤ 4.70
[36]
  pKd: ≤ 4.70
[37]
  pKd: ≤ 4.70
[38]
  pKd: 7.58
[39]
  pKd: ≤ 4.70
[40]
  pKd: ≤ 4.70
[41]
  pKd: ≤ 4.70

## SSSGMDAYY
[2]; [51]
  pKd: 7.16
[3]; [51]
  pKd: ≤ 4.70
[8]; [51]
  pKd: ≤ 4.70
[10]; [51]
  pKd: ≤ 4.70
[19]; [52]
  pKd: 6.91
[11]; [51]
  pKd: ≤ 4.70
[23]; [51]
  pKd: ≤ 4.70
[12]; [51]
  pKd: ≤ 4.70
[29]; [52]
  pKd: ≤ 4.70
[42]
  pKd: ≤ 4.70
[13]; [51]
  pKd: 6.80
[14]; [51]
  pKd: ≤ 4.70
[15]; [51]
  pKd: ≤ 4.70
[16]; [51]
  pKd: ≤ 4.70
[18]; [51]
  pKd: 6.67

## TRVTNNVYL
[24]; source organism: Variola virus
  pKd: 5.39
[25]; source organism: Camelpox virus M-96
  pKd: 7.70

## YYGRWVHEF
[22]; [53]
  pKd: 7.34
[32]; [53]
  pKd: 7.60
[33]; [53]
  pKd: ≤ 4.70
[31]; [53]
  pKd: ≥ 10.00
